We go through 1 substance from article PMC6003631.

The target in experiment [1] is human μ receptor-Rluc (human) (UniProt P35372).
Experiment [2] addresses rat HA-μ receptor (rat) (UniProt P33535).
Chain of UniProt P33535 (P33535 whole entry): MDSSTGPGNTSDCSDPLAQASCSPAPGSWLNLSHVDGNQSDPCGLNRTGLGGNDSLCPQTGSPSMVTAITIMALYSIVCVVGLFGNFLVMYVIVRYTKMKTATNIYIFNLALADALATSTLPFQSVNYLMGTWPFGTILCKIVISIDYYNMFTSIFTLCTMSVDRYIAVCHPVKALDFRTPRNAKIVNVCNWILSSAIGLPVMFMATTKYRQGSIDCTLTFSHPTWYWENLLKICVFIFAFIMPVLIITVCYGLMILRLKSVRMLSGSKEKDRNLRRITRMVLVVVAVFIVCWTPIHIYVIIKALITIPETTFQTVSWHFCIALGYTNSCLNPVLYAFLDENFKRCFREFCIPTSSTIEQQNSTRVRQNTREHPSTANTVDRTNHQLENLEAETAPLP

Chain of UniProt P35372 (P35372 whole entry): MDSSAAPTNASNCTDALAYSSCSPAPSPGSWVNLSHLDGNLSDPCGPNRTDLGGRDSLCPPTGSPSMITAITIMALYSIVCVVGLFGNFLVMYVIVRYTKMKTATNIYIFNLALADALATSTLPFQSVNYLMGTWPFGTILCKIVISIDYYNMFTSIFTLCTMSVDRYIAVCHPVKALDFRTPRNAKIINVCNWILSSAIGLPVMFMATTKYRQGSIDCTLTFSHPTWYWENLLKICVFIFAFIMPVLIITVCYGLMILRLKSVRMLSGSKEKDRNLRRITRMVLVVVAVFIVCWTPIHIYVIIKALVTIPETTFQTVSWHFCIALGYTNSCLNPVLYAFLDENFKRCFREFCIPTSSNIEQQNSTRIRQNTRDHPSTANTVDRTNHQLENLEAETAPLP

“D-Ala^2, N-MePhe^4, Gly-ol-enkephalin (peptide)” displayed an arrestin-3 recruitment to the μ receptor (BRET between human μ receptor-Rluc and arrestin-3-GFP) in HEK 293 cells, EC50 in experiment [1] of 1200 nM. Besides, in experiment [2], the Gi activation (decrease of the BRET signal between Gαi1-RlucII and GFP10-Gγ2) in HEK 293 cells expressing rat HA-μ receptors, EC50 came out at 390 nM; the Gi activation (decrease of the BRET signal between Gαi1-RlucII and GFP10-Gγ2) in HEK 293 cells expressing rat HA-μ receptors, maximum response (BRET ratio) amounted to 12.4 BRET ratio.
